This test deals with T1, Soluble human HER3 extracellular domain fused to Streptavidin Binding Protein (SBP) (human, UniProt P21860 20-643).
T1 construct: Order of the parts follows the printed name SBP-HER3 and is not otherwise stated; Used as HEK293 supernatant captured on streptavidin plates; also called SBP-HER3
The test is described as follows: ELISA, SBP-HER3 ECD captured on streptavidin plate; antibody concentration read from HER3 binding.

We go through 2 molecules from patent publication US20140227255A1 (Hoffmann-La Roche, published 2014).

Where a chain is given by its changes, count along the chain named.

Experimental: Soluble human HER3 extracellular domain fused to Streptavidin Binding Protein (SBP) was captured on a sreptavidine plate. […] For the standard coating, SBP-HER3 containing HEK293 supernatant was diluted (between 1:15 and 1:40) and incubated overnight at 2-80 C (25 μl per well). Intensive washing of the microtiter plate is necessary to remove remaining unbound SBP-HER3.
Antibodies according to the invention antibody were tested either undiluted or using a 12-step-dilution. 12.5 μl per well of each sample was incubated for 90 min at room temperature.

B1: Mab 205.10.1 (antibody, V domains shown)
VH: QVQLVQSGAEVKKPGASVKVSCKASGYTFRSSYISWVRQAPGQGLEWMGWIYAGTGSPSYNQKLQGRVTMTTDTSTSTAYMELRSLRSDDTAVYYCARHRDYYSNSLTYWGQGTLVTVSS
VL: DIVMTQSPDSLAVSLGERATINCKSSQSLLNSGNQKNYLTWYQQKPGQPPKLLIYWASTRESGVPDRFSGSGSGTDFTLTISSLQAEDVAVYYCQSDYSYPYTFGQGTKLEIK
notes: Humanized anti-HER3 antibody; Only variable domains are tied to it
For the molecule B1, the “hu_HER3-ECD-ELISA c(µg/ml)” value was 583 µg/mL.

B2: Mab 205.10.3 (antibody, V domains shown)
VH: B1 VH
VL: B1 VL with A90S, V91I
notes: as for B1
For the molecule B2, the “hu_HER3-ECD-ELISA c(µg/ml)” value was determined as 505 µg/mL.
